What was measured:
[1] = test system: yeast-induced fever model in rats; test: Yeast-induced fever model in SD rats; assay type: in vivo, rat; settings: for Body temperature 2 hours after modeling: 2 h after 20% yeast s.c.; for Body temperature 4 hours after modeling: 4 h after 20% yeast s.c.; for Body temperature 6 hours after modeling: 6 h after 20% yeast s.c.; for Body temperature 8 hours after modeling: 8 h after 20% yeast s.c.; for Effect on increase in body temperature of model rats: vs model group P<0.05
Procedure: Experimental example 1 The pharmacodynamic test of protein BD-4 (the protein in Example 4) on the fever model of SD rats induced by yeast
• Normal control group; • Model group: yeast fever model; • Positive control group: Aspirin 300 mg/kg group; • Protein BD-4, 10 mg/kg group, 50 mg/kg group. Method:
Preparation of experimental animals: After the experimental animals adapt to the experimental environment (temperature 22° C.±2° C., relative humidity 50%±2%) for 1 day. Pre-adaptation to measure rectal temperature at 8:00 and 15:00, Rats were fasted and water was taken freely 12 h before experiment. let the animal to empty its feces before measuring the rectal temperature. Apply petroleum jelly to the electronic thermometer probe before each temperature measurement. Insert the rat rectum 2 cm (can be marked at 2 cm to ensure that the depth of each insertion is consistent), and record the body temperature after the reading is stable.
Subcutaneous injection of dry yeast to replicate rat fever model: The body temperature of the rats was measured before modeling. Qualified rats with a body temperature of 36.2-37.3° C. were selected and randomly divided into groups with 8 rats in each group. After oral administration of aspirin and different doses of protein BD-4, 20% yeast suspension (10 ml/kg) was injected subcutaneously immediately, and the normal control group was injected intraperitoneally with an equal volume of normal saline. the rats' body temperature was monitored after 2 hours for a total of 8 hours.
According to the body temperature measured at each time point on the day of the experiment, calculate the mean, standard deviation and standard error of the body temperature of each group of rats. The data of each group was compared with TTEST, and P<0.05 was considered as a significant difference.

[2] = test system: phenol red excretion in mice; test: Expectorant test, phenol red excretion method in mice; assay type: in vivo, mouse; settings: for Phenol red excretion: X ± SEM
Procedure: Experimental example 5 The pharmacodynamic test of protein BD-4 (Example 4 protein) on the expectorant of phenol red excretion method in mice.
• Solvent control group; • Mucosultan 30 mg/kg group; • Protein BD-4, 20 mg/kg group, 50 mg/kg group. Method: Model Preparation and Administration:
The animals were fasted and watered 16 hours before the experiment. Orally administered Mucosultan and different doses of protein BD-4 (administration volume 10 ml/kg) in groups, and the solvent control group was given the same volume of distilled water. One hour later, 2.5% phenol red solution was injected intraperitoneally, Kill the mouse by removing the neck after 30 minutes. Take the trachea from below the thyroid cartilage to the branch of the trachea. Put the trachea into 3 ml 5% NaHCO3 solution and let it stand for 3 hours. Take 1 ml of the supernatant and centrifuge at 3000 rpm for 5 minutes. Measure and record the absorbance at 546 nm. According to the standard curve of phenol red, the excretion of phenol red was calculated.
Record the time point of oral administration, the time point of intraperitoneal injection of 2.5% phenol red solution, and the time point of tracheal extraction respectively; The absorbance of each group of samples was measured by the microplate reader at 546 nm, Calculate the excretion of phenol red according to the standard curve of phenol red. Calculate the mean and standard error of the data in each group, use TTEST to compare the solvent control group with other groups, and P<0.05 is considered as a significant difference.

[3] = test system: PTZ-induced epilepsy in mice; test: Pentylenetetrazole (PTZ) induced epilepsy in mice; assay type: in vivo, mouse; settings: for Grade IV seizure rate / mortality rate: 10 mice; for Grade IV seizure rate / mortality rate / Number of deaths / Number of Grade IV cases: PTZ 65 mg/kg i.p.; for Number of deaths / Number of Grade IV cases: of 10 mice; for Number of Grade IV cases: 15 min observation; for Level III onset latency / Grade IV onset latency: mean ± SEM; for Grade IV onset latency: no grade IV attack recorded as 900 s
Procedure: Experiment Grouping: • Model group; • Retigabine 60 mg/kg group; • Protein BD-4, 50 mg/kg group, 200 mg/kg group; Method: Model Preparation and Administration:
Administer once in the afternoon the day before modeling, On the day of modeling, intraperitoneal injection of PTZ-65 mg/kg (modeling agent) 1 hour after gavage of the test drug, the positive drug can be administered once half an hour before modeling. Continue to observe for 15 minutes after injection of PTZ.
Observation index: 1) Seizure condition: Onset time of grade III to grade VI; 2) Death situation
Onset level: Refer to Racine grading standard: Level 0: No response; Grade I: manifested as twitching of facial muscles or the corners of the mouth; Level II: Can nod; Grade III: twitching of one limb; Grade IV: Rigidity or body twitching; Grade V: Generalized epilepsy (Generalized tonic seizures).
Count the number of seizures and deaths in each group of mice in the experiment; Level III and IV incubation period. The incubation period of mice that have not attacked to grade IV is recorded as the maximum of 900 seconds. Chi-square test was used for statistics of the number of cases. Calculate the mean and standard error of the incubation period. Use TTEST to compare the model group with other groups, and P<0.05 is considered as a significant difference.

B1: BD-4: recombinant keratin, amino acid sequence SEQ ID NO: 1, expressed in E. coli; the protein of Example 4 was tested (protein, listed as Bos taurus)
chain: MSYSCCLPNLSFRSSCSSRPCVPSSCCGTTLPGACNIPANVGSCNWFCEGSFNGSEKETMQFLNDRLASYLEKVRQLERDNAELESRILERSQQQEPLVCPNYQSYFRTIEELQQKILCSKSENARLVVQIDNAKLASDDFRTKYETEVSLRQLVEADLNGLRRILDELTLCKSDLEARVESLKEELICLKQNHEQEVNTLRSQLGDRLNVEVDAAPTVDLNRVLNETRAQYEALVETNRRDVEEWYIRQTEELNKQVVSSSEQLQSYQAEIIELRRTVNALEVELQAQHNLRDSLENTLTETEARYSCQLAQVQGLIGNVESQLAEIRSDLERQNQEYQVLLDVRARLECEINTYRGLLDSEDCKLPCNPCATTNACERPCISNPCVSRARCGPCNTFVH
Body temperature 2 hours after modeling ([1]; 10 mg/kg oral): 36.7 ± 0.1 °C
Body temperature 4 hours after modeling ([1]; 10 mg/kg oral): 37.1 ± 0.1 °C
Body temperature 6 hours after modeling ([1]; 10 mg/kg oral): 37.6 ± 0.1 °C
Body temperature 8 hours after modeling ([1]; 10 mg/kg oral): 37.6 ± 0.2 °C
Effect on increase in body temperature of model rats ([1]; 10 mg/kg, 4 hour after modeling): significantly inhibit the increase in body temperature
Body temperature 2 hours after modeling ([1]; 50 mg/kg oral): 36.6 ± 0.1 °C
Body temperature 4 hours after modeling ([1]; 50 mg/kg oral): 37.4 ± 0.1 °C
Body temperature 6 hours after modeling ([1]; 50 mg/kg oral): 37.5 ± 0.1 °C
Body temperature 8 hours after modeling ([1]; 50 mg/kg oral): 37.6 ± 0.1 °C
Effect on increase in body temperature of model rats ([1]; 50 mg/kg, 8 hours after modeling): significantly inhibit the increase in body temperature
Phenol red excretion ([2]; 20 mg/kg oral): 0.898 ± 0.076 µg/mL
Phenol red excretion vs solvent control group ([2]; 20 mg/kg, P<0.05): significantly increased
Phenol red excretion ([2]; 50 mg/kg oral): 0.775 ± 0.101 µg/mL
Epilepsy grade III incubation period, comparison with model group ([3]; 50 mg/kg): statistically different from the model group
Grade IV seizure rate ([3]; 50 mg/kg gavage): 80%
mortality rate ([3]; 50 mg/kg gavage): 10%
Number of deaths ([3]; 50 mg/kg gavage): 1
Number of Grade IV cases ([3]; 50 mg/kg gavage): 8
Level III onset latency ([3]; 50 mg/kg): 91 ± 12 s
Grade IV onset latency ([3]; 50 mg/kg): 308 ± 103 s
Epilepsy grade III incubation period, comparison with model group ([3]; 200 mg/kg): statistically different from the model group
Grade IV seizure rate ([3]; 200 mg/kg gavage): 70%
mortality rate ([3]; 200 mg/kg gavage): 0
Number of deaths ([3]; 200 mg/kg gavage): 0
Number of Grade IV cases ([3]; 200 mg/kg gavage): 7
Level III onset latency ([3]; 200 mg/kg): 89 ± 8 s
Grade IV onset latency ([3]; 200 mg/kg): 493 ± 113 s

— US12098176B2, “Keratin BD-4, preparation method, and pharmaceutical composition and use thereof” (Institute of Materia Medica, Chinese Academy of Medical …, priority 2019, dated 2024)
